Results as given in the supplement of paper PMC10567573.

B1: PDS5B (parent)
chain: ITYPPGVKEISDKISKEEMVRRLK
B2: GNAI1 (parent)
chain: WIHCFEGVTAIIFCVALSDYDLVL

Variants of: B1
Experiment: protein stability index of a GFP-peptide fusion (GPS, HEK-293T) (PSI 1-6); higher = more stable
Settings: c terminus: a fixed tail appended
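Note: lentivirally expressed fusions sorted by FACS into six bins by GFP to DsRed ratio, PSI derived from sequencing read proportions per bin multiplied by bin number.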

Protein stability index, by site and new letter:
G6: E 5.04; W 3.3; A 4.26; H 4.18; T 4.31; N 3.54; D 4.43; V 3.27; M 3.33; Q 3.73; R 4; C 2.19; I 3.55; Y 2.88; S 3.96; F 3.31; K 4.57; L 3.65
T2: H 3.79; V 2.4; Y 3.37; W 3.45; E 3.86; P 3.47; S 3.72; L 4.14; N 3.79; K 3.55; R 3.57; I 2.83; G 4.08
P4: I 1.94; V 2.97; T 3.15; R 3.43; K 3.61; M 3; H 3.91; C 2.81; L 3.16; Q 3.33; D 3.24; A 3.44; N 3.43
Y3: R 4.96; H 4.43; E 4.47; Q 4.97; T 3.14; V 4.44; L 3.81; A 4.48; F 3.85; K 4.64; W 2.8; C 3.52; I 3.97; S 4.43
P5: L 3.7; G 3.67; K 3.74; S 4.45; E 4.11; C 3.62; A 4.44; I 4.29; N 4.01; Y 2.12; W 3.15; V 3.16; Q 4.17; F 3.79; R 3.81; H 3.67
K8: F 3.15; I 3.12; M 3.46; N 3.83; P 3.69; C 3.31; Q 4.29; A 4.5; E 3.78; L 3.7
V7: Y 3.77; E 3.09; G 4.01; K 4.55; M 4.06; I 4.43; L 3.67; C 4; P 3.47; Q 4.16; A 4.21; W 3.82; R 4.5; H 4.04; N 4.24
I1: S 4.78; T 4.96; H 5.04; E 4.74; G 3.81; W 4.64; P 4.78; Y 3.78; C 4.63; N 5.13; D 4.99; V 4.62; L 3.95; A 5.15; M 4.9

Variants of: B2
Experiment: as above
Settings: c terminus: a fixed tail appended

Protein stability index of substitutions, site by site:
V15: F 3.93; C 3.06; H 3.01; T 2.03; Y 3.25; I 3.06; D 2.61; M 1.77; P 3.22; Q 3.42; K 3.22; N 3.17
V8: Y 2.2
L22: D 3.04; K 3.61; C 1.87; H 1.34; A 1.82; V 4.39; Y 2.52; P 1.98; Q 3.71; N 1.85; W 3.57; F 2.5; M 2.77; S 3.61
I11: V 3.49; Y 3.17; M 3.01; P 2.79; E 2.67; A 1.48; T 1.61; H 3.5; C 3.28; S 4.32; Q 1.86; D 3.47; K 3.52; N 3.83; F 3.26
L24: P 2.78; A 1.85; T 3.34; E 1.42; Q 1.69; V 2.12; I 3.87; K 3.06; F 2.34; G 3.06; N 4.75; D 2.92; W 1.92; H 3.37; M 2.29; R 3.04
V23: S 2.21; I 2.7; N 3.29; H 4; R 2.89; P 2.28; K 3.57; E 2.71; Y 3.15; F 2.29; C 1.55; T 3.6
D21: C 3.01; S 2.76; Y 2.41; I 3.09; T 4.09; F 4.12; M 2.88; N 3.81; E 4.04; K 3.74; A 3.49; R 2.59; W 2.27; L 2.81; G 2.37
T9: Q 2.66; C 2.57; I 4.15; Y 2.83; W 3.23; R 2.51; G 2.84; H 3.23; D 3.05; A 2.01; K 2.17; S 2; F 3.82
I12: H 1.71; F 3.41; P 4.32; Y 3.14; T 1.79; K 1.93; E 4.44; S 2.84; R 5.41; L 3.2; N 2.9; Q 1; W 2.95
L17: E 3.42; D 3.5; H 2.71; F 4.72; N 2.67; P 3.56; T 2.04; V 3.19; A 3.93; K 2.55; Q 3.55; R 2.51; W 3.09; Y 2.83
Y20: G 2.45; T 4.04; M 1.56; C 2.61; S 2.35; N 3.6; I 3.91; R 2.75; E 2.71; A 3; K 2.02; F 3.7; V 2.86; L 3.28; D 3.02; Q 4.16
A10: D 1.51; N 3.19; K 2.31; Q 2.09; L 4.17; C 4.03; W 2.06; S 1.82; I 1.8; Y 2.76; F 2.31; G 2.08; T 2.48
C14: L 1.8; D 4.12; P 2.46; F 3.23; T 4.02; Y 3.37; S 3.26; N 2.56; I 3.89; G 2.52; R 4.07; M 1.93; H 2.66; Q 2.43; A 1.32
S18: F 1.9; V 2.2; P 2.3; L 4.7; W 2.62; N 2.34; D 2.67; A 1.86; I 4.92; E 4.41; T 2.95; Q 4.04
F13: E 1.84; V 2.83; I 4.07; T 2.07; S 2.34; K 4.12; C 2.64; N 2.17; P 2.43; Q 3.46; G 2.34
D19: V 3.39; A 2.02; K 3.29; M 1.58; F 3.69; L 2.58; E 3.67; S 2.77; T 4.11; P 3.43; G 3.1; Y 3.06; C 3.67; I 1.44; Q 2.96; H 2.87
A16: G 3.14; K 4.07; M 2.41; L 3.16; T 3.18; Q 2.56; Y 4.61; S 3.92; H 1.78; N 2.25; D 2.96; V 1.64
